Data from patent US20210290602A1.

T1: purified recombinant CSPα^WT (E. coli, GST removed by TEV protease) (Homo sapiens (Human)), Q9H3Z4
T1 chain: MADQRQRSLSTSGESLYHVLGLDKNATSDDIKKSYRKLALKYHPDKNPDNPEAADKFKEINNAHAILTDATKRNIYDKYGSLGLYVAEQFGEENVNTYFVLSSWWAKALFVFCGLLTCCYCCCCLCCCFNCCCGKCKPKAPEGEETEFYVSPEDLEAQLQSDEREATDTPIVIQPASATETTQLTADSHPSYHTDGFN

T2: purified recombinant CSPα^L115R (E. coli, GST removed by TEV protease) (Homo sapiens (Human)), Q9H3Z4
T2 chain: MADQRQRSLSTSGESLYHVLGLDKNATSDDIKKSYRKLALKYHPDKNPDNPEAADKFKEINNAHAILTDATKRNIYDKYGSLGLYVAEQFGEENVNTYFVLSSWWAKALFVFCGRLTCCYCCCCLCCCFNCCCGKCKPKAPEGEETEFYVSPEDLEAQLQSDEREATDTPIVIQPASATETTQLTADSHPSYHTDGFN

B1: purified recombinant CSPα^WT (E. coli, GST removed by TEV protease), Q9H3Z4 1-198 (protein)
chain: MADQRQRSLSTSGESLYHVLGLDKNATSDDIKKSYRKLALKYHPDKNPDNPEAADKFKEINNAHAILTDATKRNIYDKYGSLGLYVAEQFGEENVNTYFVLSSWWAKALFVFCGLLTCCYCCCCLCCCFNCCCGKCKPKAPEGEETEFYVSPEDLEAQLQSDEREATDTPIVIQPASATETTQLTADSHPSYHTDGFN
modifications: here or on the partner: Fe-S clusters bound at the Cys-string of the E. coli protein. No palmitoylation in bacteria.; Fe-S clusters bound at the Cys-string of the E. coli protein. No palmitoylation in bacteria.
B2: purified recombinant CSPα^L115R (E. coli, GST removed by TEV protease), Q9H3Z4 1-198 (protein)
chain: MADQRQRSLSTSGESLYHVLGLDKNATSDDIKKSYRKLALKYHPDKNPDNPEAADKFKEINNAHAILTDATKRNIYDKYGSLGLYVAEQFGEENVNTYFVLSSWWAKALFVFCGRLTCCYCCCCLCCCFNCCCGKCKPKAPEGEETEFYVSPEDLEAQLQSDEREATDTPIVIQPASATETTQLTADSHPSYHTDGFN
modifications: here or on the partner: Fe-S clusters bound at the Cys-string of the E. coli protein.; Fe-S clusters bound at the Cys-string of the E. coli protein.

What was measured:
[1] = biological target: T1, purified recombinant CSPα^WT (E. coli, …); experiment: self-oligomerization of purified recombinant protein, SDS-PAGE and quantitative anti-CSPα immunoblot; conditions: remark: other sources report otherwise
[2] = biological target: T2, purified recombinant CSPα^L115R (E. …); experiment: as above; conditions: remark: other sources report otherwise

| Binder | percent of protein existing as oligomers [1] [%] | percent of protein existing as oligomers [2] [%] |
| --- | --- | --- |
| B1 | 75 |  |
| B2 |  | 75 |
